Three molecules from paper PMC2907061 (Traffic (Copenhagen, Denmark), 2009) can be followed below.

First the molecules themselves.
B1: GST-Htz1_(1–53) (domain or fragment, yeast, UniProt Q12692 1-53, looked up)
chain: MSGKAHGGKGKSGAKDSGSLRSQSSSARAGLQFPVGRIKRYLKRHATGRTRVG
B2: H6-Srp1 (natural protein, yeast, UniProt Q02821 1-542, looked up)
chain: MDNGTDSSTSKFVPEYRRTNFKNKGRFSADELRRRRDTQQVELRKAKRDEALAKRRNFIPPTDGADSDEEDESSVSADQQFYSQLQQELPQMTQQLNSDDMQEQLSATVKFRQILSREHRPPIDVVIQAGVVPRLVEFMRENQPEMLQLEAAWALTNIASGTSAQTKVVVDADAVPLFIQLLYTGSVEVKEQAIWALGNVAGDSTDYRDYVLQCNAMEPILGLFNSNKPSLIRTATWTLSNLCRGKKPQPDWSVVSQALPTLAKLIYSMDTETLVDACWAISYLSDGPQEAIQAVIDVRIPKRLVELLSHESTLVQTPALRAVGNIVTGNDLQTQVVINAGVLPALRLLLSSPKENIKKEACWTISNITAGNTEQIQAVIDANLIPPLVKLLEVAEYKTKKEACWAISNASSGGLQRPDIIRYLVSQGCIKPLCDLLEIADNRIIEVTLDALENILKMGEADKEARGLNINENADFIEKAGGMEKIFNCQQNENDKIYEKAYKIIETYFGEEEDAVDETMAPQNAGNTFGFGSNVNQQFNFN
B3: untagged recombinant Nap1 (natural protein, yeast, UniProt P25293 1-417, looked up)
chain: MSDPIRTKPKSSMQIDNAPTPHNTPASVLNPSYLKNGNPVRAQAQEQDDKIGTINEEDILANQPLLLQSIQDRLGSLVGQDSGYVGGLPKNVKEKLLSLKTLQSELFEVEKEFQVEMFELENKFLQKYKPIWEQRSRIISGQEQPKPEQIAKGQEIVESLNETELLVDEEEKAQNDSEEEQVKGIPSFWLTALENLPIVCDTITDRDAEVLEYLQDIGLEYLTDGRPGFKLLFRFDSSANPFFTNDILCKTYFYQKELGYSGDFIYDHAEGCEISWKDNAHNVTVDLEMRKQRNKTTKQVRTIEKITPIESFFNFFDPPKIQNEDQDEELEEDLEERLALDYSIGEQLKDKLIPRAVDWFTGAALEFEFEEDEEEADEDEDEEEDDDHGLEDDDGESAEEQDDFAGRPEQAPECKQS

Like-named read-outs stand apart in the source and are kept apart here.

Assay in all cases: pull-down
One test has as its target T1, MBP-Kap123 (yeast, UniProt P40069 1-1113).
T1 sequence (looked up): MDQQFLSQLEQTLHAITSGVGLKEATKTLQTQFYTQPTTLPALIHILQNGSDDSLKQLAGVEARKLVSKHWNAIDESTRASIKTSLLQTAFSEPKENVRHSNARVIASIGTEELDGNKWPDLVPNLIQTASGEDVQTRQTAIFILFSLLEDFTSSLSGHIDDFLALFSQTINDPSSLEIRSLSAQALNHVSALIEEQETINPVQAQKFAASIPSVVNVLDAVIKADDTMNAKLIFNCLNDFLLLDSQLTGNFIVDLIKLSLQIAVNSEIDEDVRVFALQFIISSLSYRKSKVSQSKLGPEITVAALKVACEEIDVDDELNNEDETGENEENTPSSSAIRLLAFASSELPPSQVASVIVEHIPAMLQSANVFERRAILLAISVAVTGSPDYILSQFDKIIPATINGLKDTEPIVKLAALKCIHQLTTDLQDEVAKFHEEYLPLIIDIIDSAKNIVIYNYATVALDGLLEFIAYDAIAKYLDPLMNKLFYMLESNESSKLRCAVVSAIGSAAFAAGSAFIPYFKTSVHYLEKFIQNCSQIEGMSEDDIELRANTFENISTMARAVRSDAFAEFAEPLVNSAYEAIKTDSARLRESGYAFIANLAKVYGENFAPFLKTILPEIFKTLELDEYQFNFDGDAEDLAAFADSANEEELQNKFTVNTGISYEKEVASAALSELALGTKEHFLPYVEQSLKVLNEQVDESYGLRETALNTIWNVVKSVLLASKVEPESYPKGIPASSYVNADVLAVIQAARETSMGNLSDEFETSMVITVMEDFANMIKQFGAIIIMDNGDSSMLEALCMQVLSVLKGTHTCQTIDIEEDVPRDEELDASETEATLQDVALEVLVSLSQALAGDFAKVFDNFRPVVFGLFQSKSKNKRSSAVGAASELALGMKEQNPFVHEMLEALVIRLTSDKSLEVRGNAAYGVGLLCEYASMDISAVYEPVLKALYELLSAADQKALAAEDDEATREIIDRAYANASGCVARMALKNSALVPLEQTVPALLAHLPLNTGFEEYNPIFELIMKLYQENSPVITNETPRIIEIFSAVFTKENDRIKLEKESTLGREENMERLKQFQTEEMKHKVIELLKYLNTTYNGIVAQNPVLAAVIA

The target in test [1] is T2, untagged recombinant Kap95 (yeast, UniProt Q06142 1-861).
T2 sequence (looked up): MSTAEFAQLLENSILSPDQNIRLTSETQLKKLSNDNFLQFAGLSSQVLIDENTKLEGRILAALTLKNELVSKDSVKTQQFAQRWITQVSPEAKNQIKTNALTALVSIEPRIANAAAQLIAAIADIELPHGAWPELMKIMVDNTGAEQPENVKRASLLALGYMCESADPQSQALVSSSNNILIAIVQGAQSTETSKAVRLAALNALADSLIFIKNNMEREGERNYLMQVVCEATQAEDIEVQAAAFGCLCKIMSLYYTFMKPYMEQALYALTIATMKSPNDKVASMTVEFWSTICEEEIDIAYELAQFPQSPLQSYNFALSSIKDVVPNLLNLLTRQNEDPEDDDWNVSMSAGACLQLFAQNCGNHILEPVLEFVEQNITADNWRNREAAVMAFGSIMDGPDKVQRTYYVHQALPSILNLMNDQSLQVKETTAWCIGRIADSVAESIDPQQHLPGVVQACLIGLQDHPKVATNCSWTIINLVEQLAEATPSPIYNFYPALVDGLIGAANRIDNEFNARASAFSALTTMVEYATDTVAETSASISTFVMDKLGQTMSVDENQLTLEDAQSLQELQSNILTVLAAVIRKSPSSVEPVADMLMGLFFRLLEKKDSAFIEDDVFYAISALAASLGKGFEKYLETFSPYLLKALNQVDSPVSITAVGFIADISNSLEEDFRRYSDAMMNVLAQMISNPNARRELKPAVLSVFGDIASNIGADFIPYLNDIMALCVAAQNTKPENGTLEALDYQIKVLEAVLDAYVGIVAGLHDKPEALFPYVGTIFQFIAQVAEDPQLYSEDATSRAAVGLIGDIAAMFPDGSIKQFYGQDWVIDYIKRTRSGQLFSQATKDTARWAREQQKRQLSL

Test [2] addresses T3, MBP-Kap114 (yeast, UniProt P53067 1-1004).
T3 sequence (looked up): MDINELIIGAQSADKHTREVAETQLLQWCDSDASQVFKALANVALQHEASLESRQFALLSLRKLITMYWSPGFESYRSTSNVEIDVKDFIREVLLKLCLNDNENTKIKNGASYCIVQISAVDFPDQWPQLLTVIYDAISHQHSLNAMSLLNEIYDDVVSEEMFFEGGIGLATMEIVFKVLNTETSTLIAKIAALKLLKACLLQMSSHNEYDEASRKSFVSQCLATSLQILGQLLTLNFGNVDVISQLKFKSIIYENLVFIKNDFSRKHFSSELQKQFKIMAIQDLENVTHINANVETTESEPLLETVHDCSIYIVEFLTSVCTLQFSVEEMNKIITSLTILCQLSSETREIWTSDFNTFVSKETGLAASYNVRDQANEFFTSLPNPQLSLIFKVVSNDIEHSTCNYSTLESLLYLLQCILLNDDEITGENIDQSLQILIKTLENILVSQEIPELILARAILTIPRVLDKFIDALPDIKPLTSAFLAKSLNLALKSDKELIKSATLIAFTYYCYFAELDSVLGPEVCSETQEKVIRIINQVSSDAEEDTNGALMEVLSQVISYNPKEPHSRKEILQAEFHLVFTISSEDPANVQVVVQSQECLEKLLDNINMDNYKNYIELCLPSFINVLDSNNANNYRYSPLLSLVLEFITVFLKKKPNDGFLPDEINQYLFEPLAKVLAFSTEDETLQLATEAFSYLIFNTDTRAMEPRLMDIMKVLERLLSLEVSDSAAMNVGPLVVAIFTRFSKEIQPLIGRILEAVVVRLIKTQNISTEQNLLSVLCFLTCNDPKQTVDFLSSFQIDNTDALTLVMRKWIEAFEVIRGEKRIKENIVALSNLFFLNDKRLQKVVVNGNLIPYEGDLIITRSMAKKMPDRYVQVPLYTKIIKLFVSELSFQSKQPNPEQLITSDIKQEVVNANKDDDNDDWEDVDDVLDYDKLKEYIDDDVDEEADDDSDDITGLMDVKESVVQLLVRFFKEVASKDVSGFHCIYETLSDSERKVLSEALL

In test [3] the target is B3.
Test [4] deals with T2, untagged recombinant Kap95. The source holds these as a separate data set.
Test [5] has as its target T3, MBP-Kap114. This is another data set of the same source.

As to B1, the binding result (with MBP-Kap123; in test [1]; with MBP-Kap114 [2]; in test [3]) was “binds” throughout.

For B2, the binding result in test [4] is “binds”.

Consider B3, for which the binding result in the test with MBP-Kap114 [5] is reported as “binds”.
